The chains are these.
B1: HDV Ribozyme (parent)
chain: GGCCGGCAUGGUCCCAGCCUCCUCGCUGGCGCCGGCUGGGCAACAUUCCGAGGGGACCGUCCCCUCGGUAAUGGCGAAUGGGACCCA

This series covers variants of B1. Briefly: self-cleavage, relative activity (ratio to wild type); higher = more cleavage; co-transcriptional.
GGCCGGCAUGGUCCCAGCCUCCUCGCUGGCGCCGGCUGGGCAAUAUUCCGAGGGGACCGUCCCCUCGGUAAUGGCGAAUGGAACCCA: the self-cleavage is 0.363.
GGCCGCCAUGGUCCCAGCCUCCUCGCUGGCGCCGGCUGGGCAACAUGCCGAGGGGACCGUCCCCUCGGUAAUGGCGAAUGGGACCCA: the self-cleavage came to 0.158.
In the case of GGCCGGCAUCGUCCCAGCCUCCUCUCUGGCGCCGGCUGGGCAACAUUCCGAGGGGACCGUCCCCUCGGUAAUGGCGAAUGGGACCCA it was 0.0941; in that of GGCCGGCAUGGUCUGAGCCUCCUCGCUGGCGCCGGCUGGGCAACAUUCCGAGGGGACCGUCCCCUCGGUAAUGGCGAAUGGGACCCA, 0.415; in that of GGCCGGCAUGGGCCCAGCCUCCUCGCUGGCGCCGGCUGGGCAACAUUCCGAGGGGACCGUCCCCUCGGUAAUGGCGCAUGGGACCCA, 0.
For GGCCGGCAUGGUCCCAGCGUCCUCGCUGGCGCCGGCUGGGCAACAUUCCGAGGGGACCGGCCCCUCGGUAAUGGCGAAUGGGACCCA the value was 0.0405; for GGCCGGCAUGGUCCCAGCCUCCUUGCUGGCGCCGGCUGGGCAACAUUCCGAGGGCACCGUCCCCUCGGUAAUGGCGAAUGGGACCCA, 0.729.
In the case of GGCCGGCAUGGUCCCAGCCUCCUUGCUGGCGCCGGCUGGGCAACAUUCCGAGGGGACCGUCCCCUCGGUAAUGGCGAAUGGGACUCA it was 0.718; in that of GGCCGGCAUGGUACCAGCCUCCUCGCUGGCGCCGGCUGGGCAACAUUCCGAGGGGACCGUCGCCUCGGUAAUGGCGAAUGGGACCCA, 0.287.
As to GGCCGGCAUGGUCCCAGCCGCCUCGCUGGCGCCGGCUGGGCAACAUUCCGAGGAGACCGUCCCCUCGGUAAUGGCGAAUGGGACCCA, the self-cleavage worked out at 0.201.
In the case of GGCCGGCAUGGUCCAAGCCUCCUCGCGGGCGCCGGCUGGGCAACAUUCCGAGGGGACCGUCCCCUCGGUAAUGGCGAAUGGGACCCA it was 0.653; in that of GGCCGGCAUGGUCCCAGCCUCCUCGCUGGCGCCGGCUCGGCAACAUUCCGAGGGGACCGUCCCCUCGGUAAUGGCGAAUGGGAUCCA, 0.158.
In the case of GGCCGGCAUGAUCCCAGCCUCCUCGCUGGCGCCGGCUGGGCAACAUUCCGAGGGGACCGUCCCCUCGGGAAUGGCGAAUGGGACCCA it was 0.374; in that of GGCCGGCAUGGUCCCAGCCUCCUCGCUGGCGCCGGCUGGGCAACAUUCGGAGGGGACCGUCCCCUCGGUAAUCGCGAAUGGGACCCA, 0.136.
For GGCCGGCAUGGUCCCAGCCUCCGCGCUGGCGCCGGCUGGGCAACAUUCCGACGGGACCGUCCCCUCGGUAAUGGCGAAUGGGACCCA the value was 0.807; for GGCCGGCAUGGUCCCAGCCUCCUCGCUGGCGCCGGCUGGGCAACAUUCCGAGGGGACCGUCCCCUUAGUAAUGGCGAAUGGGACCCA, 0.786; for GGCCGGCAUGGUCCCAGCCCCCUCGCUGGCCCCGGCUGGGCAACAUUCCGAGGGGACCGUCCCCUCGGUAAUGGCGAAUGGGACCCA, 0.0594.
On to GGCCGGCAUGGUCCCAGCCUCCUCGCUGGCGCCGGCUGGGGAACAUUCCGAGGGGACCGACCCCUCGGUAAUGGCGAAUGGGACCCA, for which the self-cleavage was 0.733.
For GGCCGGCAUGGUCCCAGCCUCCUCGAUGGCGCCGGCUGGGCAACAUUCCGAGGGGACCGUCCCCUCGGUAAUGGCGAAUUGGACCCA the value was 0.398.
For GGCCGGCCUGGUCCCAGCCUCCUCGCUGGCGCCGGCUGGGCAACAUUCCGAGGGGACCGUCCCCUCGGUAAAGGCGAAUGGGACCCA the value was 0.375; for GGCCGGCAUGGUCCCAGCCUCCUCGCUGGCGUCGGCUGGGCAACAUUCCGAGGGGACCGUCCCCUCGGUAAUGGCGAGUGGGACCCA, 0.525; for GGCCGGCAUGGUCCCAGCCCCCUCGCUGGCGCCGGCUGGGCAACAUUCCGAGGGGACCGUCCCCUCGGUAAUGGCGAAUGGGACCUA, 0.138.
In the case of GGCCGGCAUGGUCCCAGCCUCCUCGCUGGCGGCGGGUGGGCAACAUUCCGAGGGGACCGUCCCCUCGGUAAUGGCGAAUGGGACCCA it was 0.0449; in that of GGCCGGCAUGGUCCCAGCCUCCUCGCUGGCGCCGGCUGGGCAACAUUCAGAGGGGACCGUCCCCUCGGUAAUGGCGAAUAGGACCCA, 0.479.
Consider GGCCGGCAUGGUCCCAGCCUCCUCGCUGGCGCCGGCUGGGCAACAUUCCUAGGGCACCGUCCCCUCGGUAAUGGCGAAUGGGACCCA, for which the self-cleavage amounted to 1.03.
For GGCCGGCGUGGUCCCAGCCUCCUCGCUGGCGCCGGCUGGGCAACAUUCCGAGGGGACCGUCCCCUCUGUAAUGGCGAAUGGGACCCA the value was 0.978; for GGCCGGCAUGGUCCCAGCCUCCUCGCUGGCGCCGGCUGGGCAACAUUCCGAGGGGACCGCCCCCUCGGUAAUGGCGAAUGGGGCCCA, 0.707; for GACCAGCAUGGUCCCAGCCUCCUCGCUGGCGCCGGCUGGGCAACAUUCCGAGGGGACCGUCCCCUCGGUAAUGGCGAAUGGGACCCA, 0.0343.
For GGCCGGCAUGCUCCCAGCCUCCUCGCUGGCGCCGGCUGGGCAACGUUCCGAGGGGACCGUCCCCUCGGUAAUGGCGAAUGGGACCCA the value was 0.249.
For GGCCGGCAUGGUCCCAGGCUCCUCGCUGGCGCCGGCUGGGCAACAUUCCGAGGAGACCGUCCCCUCGGUAAUGGCGAAUGGGACCCA the value was 0.125.
For GGCCGGCAUGGUCCCAGCCUCCUCGCAGGCGCCGGCUGGGCAACAUACCGAGGGGACCGUCCCCUCGGUAAUGGCGAAUGGGACCCA, the self-cleavage is 0.7.
For GGCCGGCAUGGUCCCACCCUCCUCGCUGGCGCCGGCUGGGCAACAUUCCGAGGGGACCGUCCCAUCGGUAAUGGCGAAUGGGACCCA the value was 0.314.

Values taken from the RNAGym collection of RNA variant scans (doi:10.7554/elife.80360).
